According to the nanobody polyreactivity screen of Harvey et al. (2022):

Assay: yeast display, Sf9 membrane polyspecificity reagent, FACS + sequencing; frameworks hold sequencing errors
Outline: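 Nanobodies came from a synthetic yeast display library in Saccharomyces cerevisiae BJ5465, induced with galactose for 36–48 hours and stained for 1 hour at 4 °C with 10% biotinylated, detergent-solubilized Sf9 membrane reagent. Cells were enriched on streptavidin microbeads and then FACS-sorted, with low and high (top ~1%) gates set on anti-HA fluorescence for expression and streptavidin fluorescence for reagent binding. Each polyreactivity label reflects the gate a clone came from. Genes were amplified by colony PCR, sequenced by MiSeq 2 × 250 and filtered by CDR length.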

Sequence	polyreactivity (PSR sort gate)
QVQLVESGGCLVQAGGSLRLSCAASGFIIRYYAMGWYRQAPGKERELDAAITRGGSTYYADSVKGRFRISRDNAKNTVYLQMNSLNPEDTAVYYCAARLYTQYYYWGQGTQVNVSS	high polyreactivity
QVQLVESGGCLVQAGGSLRLSCAASGFTFGPYAMGWYRQARGKERELVATLRSGDSTNYADSVKGRFTISRDNAKNTVYLQMNSVKPDDTAVYYCAVSYLSTMGRSRYEYWGQGTQVTVSS	low polyreactivity
QVQLVESGGCLVQAGGSLRLSCAASGFTFPGNAMGWYRQAPGKERELVAAMSASGGKTYYADSVKGRFTISRDNAKNTVYLQMNSLKPEDTAVYYCAAVVAFATGTYYYWGQGTQVTVSS	high polyreactivity
QVQLVESGGCLVQAGGSLRLSCAASGFTFPYYAMGWDRQAPGKERELVAAISSGGRTNYADSVKGRFTISRDNAKNTVYLQMNSLKPEDTAVYYCATRSYVFAWEFNYWGQGTQVTVSS	high polyreactivity
QVQLVESGGCLVQAGGSLRLSCAASGITFYEYAMGWSRQAPGKERELVAGITWSGGSTYYADSVKGRFTISRDNAKNTVYLEMNSLKPEDTAVYYCAATGAFWYPYDYWGQGTQVTVSS	high polyreactivity
QVQLVESGGCLVQAGGSLRLSCAASGLTLDQYALGWYRQAPGKEREFVAAISYSGGNTYYADSVKGRFTISRDNAKYTVYLQMNSLKPEDTAVYYCAAYYFYFYHKVIWYELDYWGQGTQVTVSS	low polyreactivity
QVQLVESGGCLVQAGGSLRLSCAASGPTFSKANAMGWYRQAPGKERELVAAITDGGSTYADSVKGRFTISRDNAKNTVYLQMYSMKPEDTAVYYCAKDTEVFYDSSYDYWGHGTQVTVSS	low polyreactivity
QVQLVESGGCLVQAGGSLRLSCAASGRIFESNAMGWYRQAPGKERELVAAISVNGASTSYADSVKGRFTISRDNAKNTVYLQMNSLKPEDTAVYYCAARRGKGYYYWGQGTQVTVSS	high polyreactivity
QVQLVESGGCLVQAGGSLRLSCAASGRIFLRYAMGWYRQAPGKEREFVADITYSGGSTYYADSVKGRFTISRDNAKNTVYLQMNSLKPEDTAVYYCAAGWVRPWATYKLDYWGQGTQVTVTS	high polyreactivity
QVQLVESGGCLVQAGGSLRLSCAASGRIFSAYAMGWYRQAPGKESELVAAISRSGGLTYYADSVKGRFTISRDNAKNTVYLQMTSLKPEDTAVYYCAARYGSYDSRRWYYYWGQGTQVTVSS	high polyreactivity
QVQLVESGGCLVQAGGSLRLSCAASGRIFTYYGMGWYRQAPGKERELVAAITRSGGSTRYADSVKGRFTISRDNSKNTVYLQMNSLKPEDTAVYYCNAGGYWRYDYWGQGTQVTVSS	low polyreactivity
QVQLVESGGCLVQAGGSLRLSCAASGRIFYDNVMGLYRQAPGKEREFVAAISRRGGSTDYADSVKGRFTISRDNAKNTVYLQMNSLKPEDTAVYYCADDAPGADFDYWGQGTQVTVSS	low polyreactivity
QVQLVESGGCLVQAGGSLRLSCAASGRIFYIYAMGWYRQAPGKERELVAAITNGGSTNYADSVKGRFTISRDNAKNTVYLQMNSLKPEDTAVYYCAASVGTYAYGRTVYRYDYWGQGTQVTVSS	low polyreactivity
QVQLVESGGCLVQAGGSLRLSCAASGRIFYNYAMGWYRQAPGKERELVAAISGSGGSTYYADSVKGRFTISRDNAKNTVYLQMNSLKPEDTAVYYCSTSGPQYYSRNFDYWGQGTQVTVSS	low polyreactivity
QVQLVESGGCLVQAGGSLRLSCAASGRIIGANAMGWYRQAPGKERELVAAITKNGGRTYYADSVKGRFTISRDNAKNTVYLQMNSLKPEDTAVYYCARGLDVISYGYDYWVQGTQVTVSS	high polyreactivity
QVQLVESGGCLVQAGGSLRLSCAASGRSLTDYAMGWYRKAPGKERELVAAISRSGGSTYYADSVKGRFTISRDHAKNTVYLQMNSLKTEDTAVYYCAAGTPKRVGGGYWGQCTQVTVSS	high polyreactivity
QVQLVESGGCLVQAGGSLRLSCAASGRTFINNAMGWYRQAPGKERELVAAISWDGGRTYYADSVKGRFTISRDNAKNTVYLQMNSLKPEDTAVYYCNAQPNYAYHGEDDYWGQGTQVTVSS	high polyreactivity
QVQLVESGGCLVQAGGSLRLSCAASGRTFRVNAMGWYRQAPGKEWELVAAITWRGGSTYYADSVKGRFTISRDIAKYTVYLQMNSLKPEDTAVYYCAARYSSSSRRQKSDYWGQGTQVTVSS	high polyreactivity
QVQLVESGGCLVQAGGSLRLSCAASGRTFRYYAMGWYRQAPGKERELVAAISSSGDRTYYADSVKGRFTISRDNAKNTVYLQMNSLKPEDTAVYYCAADRGARGDYWGQGTQVTVSS	high polyreactivity
QVQLVESGGCLVQAGGSLRLSCAASGRTFSYYAMGWYRQAPGKVRELVAAISRRGGSTTYADSVKGRFTISRDNAKNTVYLQMNSLKPEDTAVYYCNTYPPAHREYASWGQGTQVTVSS	high polyreactivity
QVQLVESGGCLVQAGGSLRLSCAASGRTFVTYAMRWYRQAPGKERELVAGISRRGGRTYYADSVKGRFTISRDNAKNTVYLQMNSLKPEDTAVYYCAALTYYGSDYWGQGTQVTVSS	high polyreactivity
QVQLVESGGCLVQAGGSLRLSCAASGRTFYAYAMGWYRQAPGKERELVAAISWRGGDTYYADSVKGRFTISRDNAKNTVYLQMNSLKPEETGVYYCAKYLSRQSGDGEYDYWGQGTQVTVSS	low polyreactivity

Sequence	polyreactivity (PSR sort gate)
QVQLVESGGCLVQAGGSLRLSCAASGRTLHYYAMGWYIPAPGKVRELVARINWSGGSTYYADSVKGRFTISRDNAKKTVYLQMNSLKPEDTAVYYCAARKNRAYGYWGQGTQVTVSS	high polyreactivity
QVQLVESGGCLVQAGGSLRLSCAASGSIFAEYAMGWSRQAPGKERELVASISSRGGRTFYADSVKGRFTISRDNAKNTVYLQMNSLKPEDTAVYYCNALRIYITKKTGYGYWGQGTQVTVSS	high polyreactivity
QVQLVESGGCLVQAGGSLRLSCAASGSIFGTYTMGWYRQAPGKERELVATISNSGGNTYADSVKGRFTISRDNAKNTVNLQMNSLKPEDTAVYYCAVVGGEFSSYGYWGQGTQVTVSS	low polyreactivity
QVQLVESGGCLVQAGGSLRLSCAASGSIFGWYDMGWYRQARGYERELVAAMTSDGSTNYADSVKGRFTISRDNAKNTVYLQKNSLKPEDTAVYYCAQDGWYYYYPYDYWGQGTQVTVSS	low polyreactivity
QVQLVESGGCLVQAGGSLRLSCAASGSIFHPYAMGWYRPAPGKERELVAAISKSGGNTYYADSVKGRFTISRDNAKNTVYLQMNSLKPEHTEVYYCAADYYRGRYSDRYDYWGQGTQVTVSS	low polyreactivity
QVQLVESGGCLVQAGGSLRLSCAASGSIFNSNAMGWYRPARGKERELVAVISWSDGSTRYADSVKGRFTISRDNAKNTVYLQMHSLKPEDTAVYYCNADLVYYYRQEVDYWGQGTQVTVTS	low polyreactivity
QVQLVESGGCLVQAGGSLRLSCAASGSIFPVNAMGWYRQAPGKERELVAAITSSGGTTYYADSVKGRFTISRDNAKNTVYLQMNSLKPEDTAVYYCAADVDVSYWRMEYWGQGTQVTVSS	high polyreactivity
QVQLVESGGCLVQAGGSLRLSCAASGSIFVWNVMGWYRKAPGKERELVAAISWRGGTTYYADSVKGRFTISRDNAKNTVYLQMNSLKPEDTAVYYCAKQKHWSVHGGYNYWGQGTQVTVSS	high polyreactivity
QVQLVESGGCLVQAGGSLRLSCAASGSTFGYYAMGWYRQAPGKERELVAAITSNDGSTHYADSVKGRFTISRDNAKNTVYLQMNSLKPEDTEVYYCNARSFVAVISSFVYWGQGTQVTVSS	low polyreactivity
QVQLVESGGCLVQAGGSLRLSCAASGSTIGVNAMGWYRQAPGKERELVAAISRGGGRTYYADSVKGRFTISRDNAKNTVYLQMNSLKPEDTAVYYCNTDFGARMGYCGQGTQVTVSS	high polyreactivity
QVQLVESGGCLVQAGGSLRLSCAASGSTIPLYAMGWYIQAPGKERELVAAITSGGGNTYYADSVKGRYTISRDNAKNTVYLQKTSLKPDDTAVYYCAAVVGYKSYYSYEYDYWGQGTQVNVSS	low polyreactivity
QVQLVESGGCLVQAGGSLRLSCAASGSTYKLNAMGWYRQAPGKEREMVAAISRGGRTNYADSVKGRFTISRDNAKNTVYFQMNSLNPEDTAVYYCAKDVAGLFHVGALYYYWGQGSQVTVSS	low polyreactivity
QVQLVESGGCLVQAGGSLRLSCAASGYIFSGYAMGWYRQAPGKERELVAAISSNGGSTYYADSVKGRFTISRDNAKNTVYLPMNSMKPEDTAVYYCKRGLAARVGRVDYWGQGTHVTVSS	low polyreactivity
QVQLVESGGCLVQAGGSLRLSCAASRSTFSYNAMGWYRHAPRKERELVASSSTSGGSTYYADSVKGRFSISRDNAKNTVYLQINSLTPEDTAVYYCNAPTSDIYSDFDYWGQGTQVTVSS	low polyreactivity
QVQLVESGGCLVQAGGSLRLSCAASVRTYETNAKGWYIQAPGKEREFVAAISSSGASTYYADSVKGSFTISRYNAKNTVYLQMNSLKTEDTAVYYCAARRREWGQGTQVTVSS	low polyreactivity
QVQLVESGGCLVQAGGSLRLSCAPSGFIFPYYAMGWYRPAPGQERALVAAITSSGGSTYYADSVKGRFTISRDNAKNTVYLQMNSLKPEETAVYYCNKYRRYVDGYEMDYWGQGTQVTVSS	high polyreactivity
QVQLVESGGCLVQAGGSLRLSCASSGRTFSWNAMGCYRQAPGKEREFVAAISNSGGSTYYADSVNGRFTISRDNAKNTVYLQMNSLKPEDTAVYYCAVYRYYGFSLWYDYWGQCTQVTVSS	low polyreactivity
QVQLVESGGCLVQAGGSLRLSCASSGSTFVRYTLGRYRQAPGKEREMVARISRTSSTNYADSVKGRFTISRDNAKNTVYLQMNSLKPEDTSVYYCNAREYYPTKSRFKYWGQGTQVTVSS	low polyreactivity
QVQLVESGGCLVQAGGSLRLSCPPSGSIFIYYAMGWYRHAPGKERELVAAISWSCGDTYYADSVKGRFTISRDNAKNTVYLQMNSLKPEDTAVYYCNADFDPYYPYTAWDSVLTHDEYWGQGTQVTVSS	low polyreactivity
QVQLVESGGCLVQAGGSLRLSCSASGSIFNYNDMGWYRQAPGKERELVAAIDSSGTSTYYADSVKGRYTISRDNSKNNVYLQMTSLKPEDTAVYYCNADSSLGFGYWGQGTQVTVSS	low polyreactivity
QVQLVESGGCLVQAGGSLRLSGAASGRIFGRNAMGWYRQAPGKERELVAAINSGVSTYYADSVKGRFTIARDNAKNTVYLQMNSLKPEDTAVYYSATDTDYYLLYLYYYWGQGTQVTVSS	low polyreactivity
